Here are results for one molecule from patent US10012655B2, “Method for quantitating total HMGB1 protein in biological samples” (INSTITUT PASTEUR, priority 2008, dated 2018).

One assay has as its system iDCs. Description: Cytokine and chemokine production by DCs (MAP/Luminex). Particulars: iDCs 48 h with 1 or 10 μg/ml. In kind it is cell-based, human. As to the method:
(§1) FIG. 3 (a)-(e). aNK-dependent maturation of HIV-1-infected iDCs is mediated by HMGB1 and involves RAGE. (a) Left panel: iDCs were cultured for 24 h either alone or with aNK cells, in the presence of blocking anti-HMGB1 antibodies (10 μg/ml) or glycyrrhizin (10 μg/ml). The maturation status of DCs was determined by flow cytometry with CD86 and HLA-DR—specific antibodies. Right panel: same experiment, but performed with HIV-1 infected iDCs. Data represent mean±sd of at least three independent experiments, and statistical comparisons were made with the non parametric Mann-Whitney test. * p<0.05. (b) iDC (10^6 cells/ml) were cultured for 48 h with increasing concentrations (1-10 μg/ml) of rh-HMGB1. Cells were then stained with anti-CD86, -HLA-DR, -CD80, -CD83, DC-LAMP and -CD40 antibodies and analyzed by flow cytometry. (c) Influence of rh-HMGB1 on cytokine and chemokine production (determined by MAP) by DCs. iDCs (10^6 cells/ml) were incubated for 48 h in medium or in presence of rh-HMGB1 (1 or 10 μg/ml). As a positive control, iDCs were stimulated with LPS (DC0). […] (e) iDC, DC0, uninfected or HIV-1-infected iDC cocultured for 24 h with aNK cells, were incubated with rh-HMGB1 (1 μg/ml) and subsequently stained with anti-RAGE antibodies and analyzed by flow cytometry. […]

In a further assay the test system is RAGE. The experiment in a line: Surface expression of RAGE on DCs (flow cytometry). In kind it is cell-based, human. As to conditions: uninfected iDCs incubated with 1 μg/ml. As to the method: as §1

B1: rh-HMGB1: recombinant human HMGB1 protein (R&D Systems) (protein, UniProt P09429 1-215, looked up)
High mobility group protein B1: MGKGDPKKPRGKMSSYAFFVQTCREEHKKKHPDASVNFSEFSKKCSERWKTMSAKEKGKFEDMAKADKARYEREMKTYIPPKGETKKKFKDPNAPKRPPSAFFLFCSEYRPKIKGEHPGLSIGDVAKKLGEMWNNTAADDKQPYEKKAAKLKEKYEKDIAAYRAKGKPDAAKKGVVKAEKSKKKKEEEEDEEDEEDEEEEEDEEDEDEEEDDDDE
Take B1: the “release of the chemokines MCP1, MIP-1α, MIP-1β and IL-8” value with iDCs is recorded as “increased release”. In the assay on RAGE, the RAGE surface expression entry was “down-regulation of RAGE was observed”.
